Source: PMC5777638 (Nature, 2018)

B1: RNA polymerase III subunit C34 (natural protein, Saccharomyces cerevisiae, UniProt P32910 1-317, looked up)
chain: MSGMIENGLQLSDNAKTLHSQMMSKGIGALFTQQELQKQMGIGSLTDLMSIVQELLDKNLIKLVKQNDELKFQGVLESEAQKKATMSAEEALVYSYIEASGREGIWSKTIKARTNLHQHVVLKCLKSLESQRYVKSVKSVKFPTRKIYMLYSLQPSVDITGGPWFTDGELDIEFINSLLTIVWRFISENTFPNGFKNFENGPKKNVFYAPNVKNYSTTQEILEFITAAQVANVELTPSNIRSLCEVLVYDDKLEKVTHDCYRVTLESILQMNQGEGEPEAGNKALEDEEEFSIFNYFKMFPASKHDKEVVYFDEWTI

Columns and labels:
[1] = target: B1; assay: cryo-EM structure
[2] = target: T1, RNA polymerase III subunit C128 (Saccharomyces cerevisiae, UniProt P22276 1-1149); assay: cryo-EM structure
T1 sequence (looked up): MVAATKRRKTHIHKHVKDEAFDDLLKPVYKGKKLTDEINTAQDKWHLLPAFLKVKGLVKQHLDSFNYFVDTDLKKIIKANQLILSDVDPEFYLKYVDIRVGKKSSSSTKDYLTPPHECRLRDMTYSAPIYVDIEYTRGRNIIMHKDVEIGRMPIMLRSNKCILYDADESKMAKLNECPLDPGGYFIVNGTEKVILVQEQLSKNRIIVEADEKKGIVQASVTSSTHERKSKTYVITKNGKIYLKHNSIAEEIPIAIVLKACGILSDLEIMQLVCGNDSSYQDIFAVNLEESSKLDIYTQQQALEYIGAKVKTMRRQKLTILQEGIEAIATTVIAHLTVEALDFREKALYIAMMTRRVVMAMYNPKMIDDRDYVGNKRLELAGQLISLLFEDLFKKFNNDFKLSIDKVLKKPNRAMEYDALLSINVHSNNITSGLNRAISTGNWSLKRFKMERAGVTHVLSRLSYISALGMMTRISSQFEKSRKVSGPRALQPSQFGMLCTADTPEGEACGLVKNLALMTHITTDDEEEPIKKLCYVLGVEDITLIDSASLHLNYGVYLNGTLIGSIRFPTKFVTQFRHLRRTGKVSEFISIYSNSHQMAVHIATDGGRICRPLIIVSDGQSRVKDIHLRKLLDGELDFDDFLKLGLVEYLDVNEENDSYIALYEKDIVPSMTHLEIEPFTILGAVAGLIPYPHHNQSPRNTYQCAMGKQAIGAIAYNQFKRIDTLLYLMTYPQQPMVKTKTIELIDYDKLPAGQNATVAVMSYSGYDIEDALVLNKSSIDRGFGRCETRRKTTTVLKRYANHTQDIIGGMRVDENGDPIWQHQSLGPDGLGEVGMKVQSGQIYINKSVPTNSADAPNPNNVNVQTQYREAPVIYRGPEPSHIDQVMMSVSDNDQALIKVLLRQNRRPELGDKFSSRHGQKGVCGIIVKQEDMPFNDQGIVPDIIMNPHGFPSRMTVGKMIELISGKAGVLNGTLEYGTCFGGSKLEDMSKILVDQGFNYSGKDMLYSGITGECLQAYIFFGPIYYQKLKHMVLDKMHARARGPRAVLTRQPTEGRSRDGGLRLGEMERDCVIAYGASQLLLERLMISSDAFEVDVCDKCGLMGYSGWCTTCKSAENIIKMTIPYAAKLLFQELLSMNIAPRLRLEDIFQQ

| Binder | binding result [1] | binding result [2] |
| --- | --- | --- |
| RNA polymerase III subunit C37 (natural protein, Saccharomyces cerevisiae, UniProt P36121 1-282, looked up) MSIDNKLFVTEEDEEDRTQDRADVEDESNDIDMIADENGTNSAIANEQEEKSEEVKAEDDTGEEEEDDPVIEEFPLKISGEEESLHVFQYANRPRLVGRKPAEHPFISAARYKPKSHLWEIDIPLDEQAFYNKDKAESEWNGVNVQTLKGVGVENNGQYAAFVKDMQVYLVPIERVAQLKPFFKYIDDANVTRKQEDARRNPNPSSQRAQVVTMSVKSVNDPSQNRLTGSLLAHKVADEEANIELTWAEGTFEQFKDTIVKEAEDKTLVALEKQEDYIDNLV | binds | – |
| B1 | – | binds |
